B1: CPEB3 Ribozyme (parent)
chain: UAACAGGGGGCCACAGCAGAAGCGUUCACGUCGCAGCCCCUGUCAGAUUCUGGUGAAUCUGCGAAUUCUGCUGUAUAUCUC

Variants of: B1
Assay: self-cleavage, relative activity (ratio to wild type); higher = more cleavage; in vitro, sequencing
Procedure, shortened: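 Relative activity was defined as the cleaved/total read fraction for a variant divided by the same fraction for the unmutated ribozyme. CPEB3 self-cleaving ribozyme libraries were made by rounds of error-prone PCR, barcoded, and transcribed in vitro with T7 RNA polymerase for 5 hours at 37°C, and cleavage ran through transcription plus a 15 min DNase I step before EDTA. Illumina sequencing of template-switched reverse transcripts gave the reads, and DNA sequencing mapped the barcodes. Averages come from three batches, using variants with at least 5 reads.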

Row | Variant | self-cleavage
1 | G8U U78C | 0.17
2 | G8U C29U | 0.25
3 | G8A G30A | 0.4
4 | G8A G30U | 0.16
5 | G8U G46U | 0.19
6 | G8C U43C | 0.4
7 | G8U A77U | 0.14
8 | G8C A64U | 0.22
9 | G9C A15G | 0.39
10 | G9C A15C | 0.34
11 | G9C A15U | 0.1
12 | G9A A47U | 0.06
13 | G9A A47G | 0.37
14 | G8C C23A | 0.3
15 | G8C U60A | 0.14
16 | G8C U60C | 0.24
17 | G8U A20G | 0.17
18 | G9A G63A | 0.12
19 | G9C U74C | 0.26
20 | G9C A64U | 0.23
21 | G9C A64G | 0.08
22 | G8A U78C | 0.35
23 | G8A U78A | 0.37
24 | G8U G33A | 0.08

Row | Variant | self-cleavage
25 | G8U G33U | 0.1
26 | G8A G73A | 0.18
27 | G8A G22A | 0.27
28 | G8U A15U | 0.4
29 | G8U A15G | 0.24
30 | G9C U76C | 0.3
31 | G9A G16A | 0.17
32 | G8A G33U | 0.07
33 | G8U A28G | 0.14
34 | G8U A28U | 0.09
35 | G9A U58A | 0.07
36 | G9A U58G | 0.08
37 | G9A U58C | 0.25
38 | G9A A18U | 0.14
39 | G9A A18G | 0.21
40 | G9A U25C | 0.21
41 | G9A U25A | 0.2
42 | G8A U43A | 0.27
43 | G8A U43C | 0.14
44 | G8C G73U | 0.25
45 | G8U U25C | 0.12
46 | G8U C62U | 0.12
47 | G8A G63C | 0.19
48 | G9A U54C | 0.33

Row | Variant | self-cleavage
49 | G9A U54A | 0.13
50 | G9A C81U | 0.35
51 | G8U G63A | 0.07
52 | G8U A18G | 0.14
53 | G8U A18U | 0.16
54 | G8U C79U | 0.04
55 | G9A U69G | 0.2
56 | G9A U69C | 0.1
57 | G9A U69A | 0.21
58 | G8U U58A | 0.32
59 | G8U U58C | 0.1
60 | G9A C32U | 0.2
61 | G8A U41C | 0.32
62 | G8A U41A | 0.07
63 | G9A C68U | 0.27
64 | G8U U60C | 0.17
65 | G8U U60G | 0.06
66 | G8U U60A | 0.07
67 | G8C | 0.27
68 | G8U | 0.23
69 | G9C U67C | 0.11
70 | G8U A65U | 0.43
71 | G8U A65G | 0.34
72 | G8A U74C | 0.35

Row | Variant | self-cleavage
73 | G8A U74A | 0.25
74 | G9A G42A | 0.3
75 | G8C U69C | 0.22
76 | G9A G24A | 0.22
77 | G9A G24C | 0.2
78 | G8A U31C | 0.24
79 | G8A U31G | 0.41
80 | G8A U31A | 0.18
81 | G9A U41C | 0.43
82 | G9A U41A | 0.19
83 | G9A U41G | 0.26
84 | G9A C40U | 0.08
85 | G9A U80A | 0.21
86 | G9A U80C | 0.23
87 | G8C U80G | 0.24
88 | G9A C23U | 0.07
89 | G9A A21C | 0.06
90 | G9A A21G | 0.19
91 | G8C G55A | 0.37
92 | G8U G22A | 0.12
93 | G9A U67C | 0.08
94 | G9A U67A | 0.11
95 | G8C C40U | 0.13
96 | G8C A28G | 0.22

Row | Variant | self-cleavage
97 | G8U A35U | 0.27
98 | G9C A65G | 0.32
99 | G8C U31C | 0.38
100 | G8C U31G | 0.34
101 | G9A C34A | 0.2
102 | G9A U51A | 0.27
103 | G9A U51C | 0.37
104 | G8C G52A | 0.31
105 | G8C A15C | 0.29
106 | G8A G52A | 0.3
107 | G8C U25C | 0.15
108 | G8U U31C | 0.11
109 | G8U U31A | 0.18
110 | G8A G70A | 0.05
111 | G8U C14U | 0.06
112 | G9A U76C | 0.34
113 | G9A U76A | 0.45
114 | G8U U51C | 0.08
115 | G8U U51A | 0.08
116 | G8U G10A | 0.39
117 | G8C A21G | 0.06
118 | G9C A56G | 0.24
119 | G9A G30U | 0.06
120 | G9A G30A | 0.18

Row | Variant | self-cleavage
121 | G9A U48C | 0.36
122 | G9C U72G | 0.09
123 | G9C U72C | 0.37
124 | G8U U69A | 0.12
125 | G8U U69C | 0.09
126 | G8A U49C | 0.2
127 | G8A U49A | 0.25
128 | G9A A75G | 0.31
129 | G9A G73A | 0.47
130 | G9A A77U | 0.23
131 | G9A A77C | 0.17
132 | G9A A77G | 0.3
133 | G9C G55A | 0.41
134 | G8A U48A | 0.27
135 | G8A U48G | 0.37
136 | G8A U48C | 0.15
137 | G8U G19C | 0.23
138 | G9A U49C | 0.23
139 | G9A U49A | 0.19
140 | G9C U54C | 0.41
141 | G9A G46A | 0.13
142 | G8U U41A | 0.19
143 | G8U U41C | 0.12
144 | G8U U41G | 0.39

Row | Variant | self-cleavage
145 | G8C G33A | 0.06
146 | G9A U72A | 0.23
147 | G9A U72C | 0.39
148 | G9C U58G | 0.06
149 | G8A U69G | 0.28
150 | G8A U69A | 0.28
151 | G8A U69C | 0.19
152 | G9A A15G | 0.3
153 | G9A A15U | 0.15
154 | G8C C32U | 0.2
155 | G8A U25A | 0.05
156 | G8A U25C | 0.26
157 | G8U G36A | 0.1
158 | G8A U72C | 0.26
159 | G8A U72A | 0.07
160 | G8A U72G | 0.12
161 | G8C G36C | 0.15
162 | G9C U41C | 0.15
163 | G8A U60C | 0.23
164 | G8A U60A | 0.18
165 | G9A U74C | 0.6
166 | G8C U58C | 0.21
167 | G9C C34A | 0.14
